Assay results: US20230414778A1, “COMBINATION OF ANTIBODY-DRUG CONJUGATE WITH ANTI-SIRPalpha ANTIBODY” (DAIICHI SANKYO COMPANY, LIMITED, priority 2020, published 2023)

Tests used:
SIRPα V1 = SIRPα V1 (Homo sapiens, UniProt P78324); settings: Patent References 1 to 3; cited from earlier work
SIRPβ1 = SIRPβ1 (Homo sapiens, UniProt O00241); settings: Patent References 1 to 3; cited from earlier work
cancer cells = settings: known from literature; cited from earlier work
SIRPγ = SIRPγ (Homo sapiens, UniProt Q9P1W8); settings: Patent References 1 to 3; cited from earlier work
[1] = tested on: all 10 types of SIRPα variant; settings: Patent References 1 to 3; cited from earlier work
mouse SIRPα antigen = target: T1, mouse SIRPα antigen (Mus musculus, UniProt P97797); assay: Binding affinity to mouse SIRPα antigen
T1 sequence (P97797 32-513): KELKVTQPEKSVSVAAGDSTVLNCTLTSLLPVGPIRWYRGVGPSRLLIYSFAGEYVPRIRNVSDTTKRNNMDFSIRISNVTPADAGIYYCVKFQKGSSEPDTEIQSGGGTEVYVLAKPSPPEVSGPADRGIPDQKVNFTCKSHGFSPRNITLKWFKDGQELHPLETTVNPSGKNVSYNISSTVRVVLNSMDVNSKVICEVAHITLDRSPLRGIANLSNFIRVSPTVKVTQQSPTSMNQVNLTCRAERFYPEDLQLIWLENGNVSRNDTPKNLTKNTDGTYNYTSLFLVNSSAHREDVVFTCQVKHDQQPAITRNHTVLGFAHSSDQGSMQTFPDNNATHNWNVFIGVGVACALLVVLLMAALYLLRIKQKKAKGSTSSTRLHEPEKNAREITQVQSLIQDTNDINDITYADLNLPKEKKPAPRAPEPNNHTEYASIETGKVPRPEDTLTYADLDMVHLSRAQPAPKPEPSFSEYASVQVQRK
Experimental: The lymph node cells and mouse myeloma SP2/0-ag14 cells (ATCC: CRL-1581) were fused in accordance with a polyethylene glycol method. The fused cells were suspended in HAT selective medium and cultured in accordance with the limiting dilution method. The hybridoma colonies that emerged were collected. In this manner, monoclonal hybridomas were prepared. The collected hybridoma colonies were cultured. Using the resultant hybridoma culture supernatant, an antibody-producing hybridoma was screened based on binding activity to a mouse SIRPα protein as an index. In this manner, clone: 5C12 was screened.

CT26.WT-HER3 cells = assay: Antitumor study (3); format: in vivo, BALB/c mice; settings: single administration, 10 mg/kg, Day 18
Experimental: Mouse: Female 6-week-old BALB/c mice (BALB/c AnNCrlCrlj) (bred by CHARLES RIVER LABORATORIES JAPAN, INC.) were subjected to experiments.
Measurement and calculation formula: the long diameter and short diameter of tumors were measured twice a week with an electronic digital caliper (CD15-CX, manufactured by Mitutoyo Corporation), and the tumor volumes (mm^3) were calculated. The calculation formula is shown below:
Tumor volume (mm^3)=0.5×Long diameter (mm)×[Short diameter (mm)]^2
Individuals having a tumor volume of beyond 3000 mm^3 were humanely killed from an ethical point of view for animal experiments.
The antibody-drug conjugate (3) (Drug-to-Antibody Ratio: 8) and an anti-SIRPα antibody (clone: 5C12) were diluted with PBS, and used for administration.
To mouse colorectal cancer cell line CT26.WT (CRL2638) purchased from the American Type Culture Collection, a human HER3 gene was transfected by use of a lentivirus vector to prepare CT26.WT-HER3 cells, which were put in use. The cells express a human HER3 protein on the cell membrane. CT26.WT-HER3 cells were suspended in saline, and 2.0×10^6 cells were subcutaneously inoculated into the right axilla of each of the BALB/c mice (Day 0). Seven days later, the mice were randomly grouped (Day 7). […] P value was expressed to four decimal places and the results satisfying P<0.05 (two-sided test) were determined as being significant.

CT26.WT-hTROP2 cells = assay: Antitumor study (2); format: in vivo, BALB/c mice; settings: single administration, 10 mg/kg, Day 18
Experimental: Mouse: Female 6-week-old BALB/c mice (BALB/c AnNCrlCrlj) (bred by CHARLES RIVER LABORATORIES JAPAN, INC.) were subjected to experiments. Measurement and calculation formula: the long diameter and short diameter of tumors were measured twice a week with an electronic digital caliper (CD15-CX, manufactured by Mitutoyo Corporation), and the tumor volumes (mm^3) were calculated. The calculation formula is shown below: […] Individuals having a tumor volume of beyond 3000 mm^3 were humanely killed from an ethical point of view for animal experiments. […] An anti-SIRPα antibody (clone: 5C12) was diluted with PBS, and a dose of 10 mL/kg was intraperitoneally administered. […] The cells express a human TROP2 protein on the cell membrane. CT26.WT-hTROP2 cells were suspended in saline, and 2.0×10^6 cells were subcutaneously inoculated into the right axilla of each of the BALB/c mice (Day 0). Seven days later, the mice were randomly grouped (Day 7). […] The anti-SIRPα antibody (clone: 5C12) was intraperitoneally administered at a dose of 10 mg/kg on Day 8, 11 and 13 (three times in total). […] Measurement of the tumor volume was continued until Day 18. […] P value was expressed to four decimal places and the results satisfying P<0.05 (two-sided test) were determined as being significant.

4T1-hmHER2 cells = assay: Antitumor study (1); format: in vivo, BALB/c mice; settings: single administration, 10 mg/kg, Day 21
Experimental: Individuals having a tumor volume of beyond 3000 mm^3 were humanly killed from an ethical point of view for animal experiments.
The antibody-drug conjugate (1) (Drug-to-Antibody Ratio: 7.6) was diluted with PBS, and a dose of 10 mL/kg was intravenously administered to the tail vein.
To mouse breast cancer cell line 4T1 (CRL-2539) purchased from the American Type Culture Collection, a human/mouse chimera HER2 gene was transfected by use of a lentivirus vector to prepare 4T1-hmHER2 cells, which were put in use. The cells express a human/mouse chimera HER2 protein on the cell membrane. Then, 4T1-hmHER2 cells were suspended in PBS and 1.0×10^6 cells were subcutaneously inoculated into the right axilla of each of the BALB/c mice (Day 0). Four days later, the mice were randomly grouped (Day 4). The antibody-drug conjugate (1) was intravenously administered at a dose of 10 mg/kg on Day 4 and 11 (two times in total) to the tail vein. […] P value was expressed to four decimal places and the results satisfying P<0.05 (two-sided test) were determined as being significant.

Sequence of SIRPβ1 (O00241 30-398): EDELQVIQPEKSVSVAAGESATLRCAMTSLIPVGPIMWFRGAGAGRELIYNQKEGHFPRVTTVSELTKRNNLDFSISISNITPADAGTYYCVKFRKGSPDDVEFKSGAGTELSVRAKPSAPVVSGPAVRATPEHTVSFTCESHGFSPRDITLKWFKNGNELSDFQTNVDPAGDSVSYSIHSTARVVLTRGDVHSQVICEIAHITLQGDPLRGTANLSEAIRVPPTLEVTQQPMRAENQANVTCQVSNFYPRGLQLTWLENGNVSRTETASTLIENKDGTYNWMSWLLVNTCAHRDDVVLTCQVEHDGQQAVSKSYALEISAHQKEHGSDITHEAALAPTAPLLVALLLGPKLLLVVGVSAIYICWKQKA
Sequence of SIRPγ (Q9P1W8 29-387): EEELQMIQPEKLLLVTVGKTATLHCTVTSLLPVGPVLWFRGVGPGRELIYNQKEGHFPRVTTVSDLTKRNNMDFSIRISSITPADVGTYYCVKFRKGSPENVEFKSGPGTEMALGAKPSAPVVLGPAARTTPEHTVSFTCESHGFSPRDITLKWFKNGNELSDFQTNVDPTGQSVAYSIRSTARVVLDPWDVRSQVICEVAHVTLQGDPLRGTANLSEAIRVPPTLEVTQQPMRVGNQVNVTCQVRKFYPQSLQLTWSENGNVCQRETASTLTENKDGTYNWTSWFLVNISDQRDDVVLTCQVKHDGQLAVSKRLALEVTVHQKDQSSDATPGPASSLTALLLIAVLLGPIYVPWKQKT

OSE-172: anti-SIRPα IgG4Pro antibody of WO 2017/178653, SEQ ID NO: 24 and 25
binding to SIRPα V1 (SIRPα V1): binds | binding to SIRPβ1 (SIRPβ1): binds

O=P1(N(CCCl)CCCl)NCCCO1 (stereo not shown) [Cyclophosphamide]
ICD induction (cancer cells): inducing ICD

CC(=O)O[C@@]12CO[C@@H]1C[C@H](O)[C@@]1(C)C(=O)[C@H](O)C3=C(C)[C@@H](OC(=O)[C@H](O)[C@@H](NC(=O)OC(C)(C)C)c4ccccc4)C[C@@](O)([C@@H](OC(=O)c4ccccc4)[C@H]21)C3(C)C [Docetaxel]
ICD induction (cancer cells): not confirmed to induce ICD

ADU-1805: anti-SIRPα IgG2 antibody of WO 2018/190719, SEQ ID NO: 28 and 29
binding to SIRPγ (SIRPγ): binds | binding to all 10 types of SIRPα variant [1]: binds

O=C1[O][Pt]2([NH][C@@H]3CCCC[C@H]3[NH]2)[O]C1=O [Oxaliplatin]
ICD induction (cancer cells): inducing ICD

KWAR23: anti-SIRPα antibody of WO 2018/026600, SEQ ID NO: 26 and 27
binding to SIRPγ (SIRPγ): binds | binding to all 10 types of SIRPα variant [1]: binds | binding to SIRPβ1 (SIRPβ1): binds

CO[C@@]12[C@H](COC(N)=O)C3=C(C(=O)C(C)=C(N)C3=O)N1C[C@@H]1N[C@@H]12 [Mitomycin C]
ICD induction (cancer cells): not confirmed to induce ICD

B1: 5C12: rat-derived anti-mouse SIRPα surrogate antibody, heavy and light chain SEQ ID NOs: 30 and 31 (antibody, listed as Mus musculus)
heavy: MKHLWFFLLLVAAPRWVLSEVQLVESGGGLVQPGGSLKLSCAASGFTFSNYDMAWVRQAPTKGLEWVASISTRGGSSYYRDSVKGRFTVSRDNAKSTLYLQMDSLRSEDTATYYCARHPGDYFDYWGQGVMVTVSSAKTTPPSVYPLAPGSAAQTNSMVTLGCLVKGYFPEPVTVTWNSGSLSSGVHTFPAVLQSDLYTLSSSVTVPSSTWPSETVTCNVAHPASSTKVDKKIVPRDCGCKPCICTVPEVSSVFIFPPKPKDVLTITLTPKVTCVVVAISKDDPEVQFSWFVDDVEVHTAQTQPREEQFNSTFRSVSELPIMHQDWLNGKEFKCRVNSAAFPAPIEKTISKTKGRPKAPQVYTIPPPKEQMAKDKVSLTCMITDFFPEDITVEWQWNGQPAENYKNTQPIMDTDGSYFVYSKLNVQKSNWEAGNTFTCSVLHEGLHNHHTEKSLSHSPGK
light: MVLQTQVFISLLLWISGAYGDTVLTQSPALAVSPGERVTISCRASESVSTLIHWYQQKPGQQPKLLIYLTSHLESGVPARFSGSGSGTDFTLTIDPVEADDTATYYCQQSWTHPWTFGGGTKLELKRADAAPTVSIFPPSSEQLTSGGASVVCFLNNFYPKDINVKWKIDGSERQNGVLNSWTDQDSKDSTYSMSSTLTLTKDEYERHNSYTCEATHKTSTSPIVKSFNRNEC
binding affinity to mouse SIRPα antigen compared with that of hD13_H1L3 to a human SIRPα antigen (mouse SIRPα antigen): at the same level | binding affinity to the mouse SIRPα antigen (mouse SIRPα antigen): high binding affinity | antitumor effect (tumor volume) compared to the control group (CT26.WT-HER3 cells): no therapeutic effect | antitumor effect (tumor volume) compared to the control group (CT26.WT-hTROP2 cells): partial antitumor effect | antitumor effect (tumor volume) compared to the control group (4T1-hmHER2 cells): significantly stronger antitumor effect
